Measurements published in PMC5546038, “Engineering the fragment crystallizable (Fc) region of human IgG1 multimers and monomers to fine-tune interactions with sialic acid-dependent receptors” (The Journal of Biological Chemistry, 2017).

T1: hexa-Fc N297A/N563A (human)
T1 chain: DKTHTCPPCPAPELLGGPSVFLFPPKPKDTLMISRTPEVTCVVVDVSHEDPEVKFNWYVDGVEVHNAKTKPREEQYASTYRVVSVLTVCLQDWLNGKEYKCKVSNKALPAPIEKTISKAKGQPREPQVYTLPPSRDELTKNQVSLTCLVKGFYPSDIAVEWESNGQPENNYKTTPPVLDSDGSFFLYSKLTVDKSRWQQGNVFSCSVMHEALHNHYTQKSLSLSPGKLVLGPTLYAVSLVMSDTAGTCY


Legend:
hexa-Fc N297A/N563A = target: T1, hexa-Fc N297A/N563A; test: SEC + other: non-reducing SDS-PAGE; molecular mass ∼650–700 kDa; SEC shown for N563A (supplemental Fig. S2); sizes counted in Fc units of two chains; settings: both partners purified
[1] = target: the molecule itself; test: as above

stoichiometry N (hexa-Fc N297A/N563A) | Binder | stoichiometry N [1]
~12 | hexa-Fc N297A/N563A (other, no N-glycans; multimer, approximately dodecamers of Fc / no N-glycans; multimer, approximately dodecamers of Fc) DKTHTCPPCPAPELLGGPSVFLFPPKPKDTLMISRTPEVTCVVVDVSHEDPEVKFNWYVDGVEVHNAKTKPREEQYASTYRVVSVLTVCLQDWLNGKEYKCKVSNKALPAPIEKTISKAKGQPREPQVYTLPPSRDELTKNQVSLTCLVKGFYPSDIAVEWESNGQPENNYKTTPPVLDSDGSFFLYSKLTVDKSRWQQGNVFSCSVMHEALHNHYTQKSLSLSPGKLVLGPTLYAVSLVMSDTAGTCY | –
– | hexa-Fc D221N/N297A/N563A (other, N-linked glycan at Asn-221) NKTHTCPPCPAPELLGGPSVFLFPPKPKDTLMISRTPEVTCVVVDVSHEDPEVKFNWYVDGVEVHNAKTKPREEQYASTYRVVSVLTVCLQDWLNGKEYKCKVSNKALPAPIEKTISKAKGQPREPQVYTLPPSRDELTKNQVSLTCLVKGFYPSDIAVEWESNGQPENNYKTTPPVLDSDGSFFLYSKLTVDKSRWQQGNVFSCSVMHEALHNHYTQKSLSLSPGKLVLGPTLYAVSLVMSDTAGTCY | ~12
